{"source": "patent US20220135640A1", "about": "“CORTISTATIN OR AN ANALOGUE THEREOF AS A PHARMACEUTICALLY ACTIVE AGENT IN LATENT FORM” (CONSEJO SUPERIOR DE INVESTIGACIONES CIENTIFICAS (CSIC), priority 2019, published 2022)", "molecules": {"B1": {"name": "LAP-CST: fusion protein of LAP of TGFβ-1 (Met1-Ser273), MMP cleavage site PLGLWA flanked by GGGGS linkers, and rat cortistatin-29 (protein)", "chain": "MPPSGLRLLPLLLPLLWLLVLTPGRPAAGLSTCKTIDMELVKRKRIEAIRGQILSKLRLASPPSQGEVPPGPLPEAVLALYNSTRDRVAGESAEPEPEPEADYYAKEVTRVLMVETHNEIYDKFKQSTHSIYMFFNTSELREAVPEPVLLSRAELRLLRLKLKVEQHVELYQKYSNNSWRYLSNRLLAPSDSPEWLSFDVTGVVRQWLSRGGEIEGFRLSAHCSCDSRDNTLQVDINGFTTGRRGDLATIHGMNRPFLLLMATPLERAQHLQSEFGGGGSPLGLWAGGGGSAAAQERPPLQQPPHRDKKPCKNFFWKTFSSCK", "modifications": "Fusion peptide"}}, "key": {"[1]": {"experiment": "Stability of cortistatin-29, free versus in LAP-CST, at room temperature", "format": "physicochemical", "protocol": "On the other hand, whereas the amount of recombinant cortistatin-29 decreased in a 82% after 15 minutes at room temperature, the amount of cortistatin-29 in LAP-CST remains stable for at least 7 days."}, "[2]": {"system": "somatostatin receptors, sstr1-sstr5", "conditions": "cited from earlier work"}, "[3]": {"conditions": "cited from earlier work"}, "sstr1": {"target": "sstr1 (Homo sapiens, UniProt P30872)", "sequence (P30872 whole entry)": "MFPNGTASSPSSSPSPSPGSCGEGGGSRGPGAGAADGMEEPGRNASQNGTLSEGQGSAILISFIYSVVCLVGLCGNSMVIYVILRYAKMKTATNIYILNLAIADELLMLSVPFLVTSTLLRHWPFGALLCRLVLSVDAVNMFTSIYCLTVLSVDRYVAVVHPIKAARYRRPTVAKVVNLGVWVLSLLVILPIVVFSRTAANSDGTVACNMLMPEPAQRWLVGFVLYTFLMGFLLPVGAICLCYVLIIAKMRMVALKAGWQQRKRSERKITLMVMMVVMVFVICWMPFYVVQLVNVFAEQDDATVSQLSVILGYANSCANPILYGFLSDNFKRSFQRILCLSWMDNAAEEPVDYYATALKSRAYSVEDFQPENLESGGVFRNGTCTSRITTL", "conditions": "cited from earlier work"}, "sstr4": {"target": "sstr4 (Homo sapiens, UniProt P31391)", "sequence (P31391 whole entry)": "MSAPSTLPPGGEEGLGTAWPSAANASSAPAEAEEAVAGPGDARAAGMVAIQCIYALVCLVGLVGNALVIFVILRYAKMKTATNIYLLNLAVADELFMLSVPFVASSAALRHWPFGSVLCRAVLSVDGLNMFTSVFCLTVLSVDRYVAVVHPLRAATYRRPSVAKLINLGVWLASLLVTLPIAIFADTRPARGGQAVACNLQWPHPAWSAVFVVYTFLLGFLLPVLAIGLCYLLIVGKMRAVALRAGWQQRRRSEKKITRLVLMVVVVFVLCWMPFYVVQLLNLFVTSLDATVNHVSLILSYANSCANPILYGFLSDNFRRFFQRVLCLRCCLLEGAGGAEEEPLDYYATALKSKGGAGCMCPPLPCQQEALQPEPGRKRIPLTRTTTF", "conditions": "cited from earlier work"}, "sstrt2 receptor": {"target": "sstrt2 receptor (Homo sapiens, UniProt P30874)", "sequence (P30874 whole entry)": "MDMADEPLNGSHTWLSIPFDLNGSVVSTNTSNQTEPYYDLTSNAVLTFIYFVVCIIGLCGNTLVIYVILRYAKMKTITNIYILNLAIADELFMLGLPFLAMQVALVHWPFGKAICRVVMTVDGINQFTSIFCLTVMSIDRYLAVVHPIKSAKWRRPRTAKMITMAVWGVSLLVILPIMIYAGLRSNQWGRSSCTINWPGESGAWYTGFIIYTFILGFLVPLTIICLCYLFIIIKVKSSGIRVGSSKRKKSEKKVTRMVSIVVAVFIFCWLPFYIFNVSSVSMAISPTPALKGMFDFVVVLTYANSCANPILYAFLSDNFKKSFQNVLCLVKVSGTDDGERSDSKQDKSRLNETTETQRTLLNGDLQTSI", "conditions": "cited from earlier work"}, "[4]": {"system": "LAP-GS-MMP-GS-CST-29r fusion protein (SP-LAP-L1-MMP-L2-CST29r)"}, "[5]": {"system": "liver fibrosis induced by CCl4", "experiment": "CCl4-induced liver fibrosis", "format": "in vivo, C57Bl/6 mice", "conditions": "systemic, once a week, 100 pg/mouse, 6 weeks", "protocol": "FIG. 4 is a quantification of liver fibrosis and tissue damage using Image J program and scored using an established clinical ISHAK index from 0 to 4 in a blinded fashion.\nLiver fibrosis was induced by intraperitoneal injection of CCl4 (3:9 in olive oil, 40 μl/mouse, every three days) in C57Bl/6 mice. Mice were treated three times a week with cortistatin (500 ng/mouse) or once a week with LAP-CST (100 pg/mouse). After 6 weeks, liver was dissected and processed for histological analysis using Mason Trichromic staining and Sirius Red staining. Liver fibrosis and tissue damage were quantified using Image J program and scored using an established clinical ISHAK index from 0 to 4 in a blinded fashion (FIG. 4)."}, "[6]": {"system": "dermal fibrosis induced by bleomycin", "experiment": "Bleomycin-induced dermal sclerodermia, local treatment", "format": "in vivo, C57Bl/6 mice", "protocol": "FIG. 2 illustrates the experiments performed wherein sclerodermia was induced by intradermal injection of bleomycin (3 times per week, during four weeks) in an area of […] in the dorsal skin of C57Bl/6 mice. Mice were locally treated around the lesion area with saline (group bleomycin), with cortistatin (group belomycin+CST, 3 time per week, 10 ng each time), with empty LAP vector (Bleomycin+LAP, once a week, 20 pg) or with LAP-CST (Bleomycin+LAP-CST, once a week, 20 pg). Naïve animals without bleomycin were used as basal control reference. After four weeks, lesioned skin area was dissected and processed for histological analysis using Mason Trichromic staining. Skin thickness (from epidermis to hypodermis) was quantified using Image J program. Fibrotic deposits in skin are stained in blue in sections. […] Skin thickness (from epidermis to hypodermis) was quantified using Image J program. […]"}, "[7]": {"system": "bleomycin-induced lung fibrosis", "experiment": "Bleomycin-induced lung fibrosis, comparison of LAP constructs (Example 5)", "format": "in vivo, C57Bl/6 mice", "conditions": "nasal inhalation, once a week, 20 pg, 18 days", "protocol": "FIG. 5. Lung fibrosis and tissue damage were quantified using Image J program and scored using an established clinical index from 0 to 4 in a blinded fashion. Mortality caused by fibrosis is shown in this figure.\nLung fibrosis was induced by intratracheal injection of bleomycin (50 μg/kg body weight, dissolved in 50 μl of saline) in C57Bl/6 mice. Mice were treated once a week by nasal inhalation of 20 pg of empty LAP (A), LAP containing only cortistatin (B), LAP containing cortistatin and linkers LAP-L1L2-CST but not MMP site (C), or LAP containing cortistatin, linkers and MMP site (D). After 18 days, lungs were dissected and processed for histological analysis using Mason Trichromic staining and Sirius Red staining. Lung fibrosis and tissue damage were quantified using Image J program and scored using an established clinical index from 0 to 4 in a blinded fashion."}, "recombinant MMP1": {"target": "T1, recombinant MMP1 (Homo sapiens, UniProt P03956)", "T1 sequence (P03956 100-469)": "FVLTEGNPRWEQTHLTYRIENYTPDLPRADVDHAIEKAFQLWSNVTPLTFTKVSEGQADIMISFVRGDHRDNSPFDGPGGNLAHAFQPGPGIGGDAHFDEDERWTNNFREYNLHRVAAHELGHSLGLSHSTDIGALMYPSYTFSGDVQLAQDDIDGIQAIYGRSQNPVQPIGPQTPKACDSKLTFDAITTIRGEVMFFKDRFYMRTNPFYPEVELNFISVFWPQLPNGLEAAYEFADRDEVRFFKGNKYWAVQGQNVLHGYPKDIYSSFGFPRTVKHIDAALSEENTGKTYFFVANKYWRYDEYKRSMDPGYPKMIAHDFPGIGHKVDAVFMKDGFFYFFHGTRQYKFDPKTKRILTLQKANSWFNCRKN", "experiment": "Treatment of LAP-CST supernatants with recombinant MMP1, Cortistatin-29 recovered", "format": "biochemical", "conditions": "48 h supernatants treated with recombinant MMP1; diminished from 80 ng; 12 hours later", "from_the_text": "The amount of LAP-MMP-CST-29r peptide in culture supernatants was indirectly determined by measuring the concentration of rat Cortistatin-29 by using a specific ELISA (Phoenix Pharmaceuticals)."}, "[8]": {"system": "bleomycin-induced lung fibrosis", "experiment": "Bleomycin-induced lung fibrosis, nasal inhalation (Example 3)", "format": "in vivo, C57Bl/6 mice", "conditions": "once a week, 20 pg", "protocol": "(§1) FIG. 3 illustrates the experiments performed wherein lung fibrosis was induced by intratracheal injection of bleomycin (50 μg/kg body weight, dissolved in 50 μl of saline) in C57Bl/6 mice. Mice were treated by nasal inhalation of saline (group bleomycin+saline), cortistatin (group belomycin+CST, 3 times per week, 10 ng each time), or LAP-CST (Bleomycin+LAP-CST, once a week, 20 pg). After 18 days, lungs were dissected and processed for histological analysis using Mason Trichromic staining and Sirius Red staining. Lung fibrosis and tissue damage were quantified using Image J program and scored using an established clinical index from 0 to 4 in a blinded fashion. Mortality caused by fibrosis is shown in this figure.\nas §1, with “Lung” for “FIG. 3 illustrates the experiments performed wherein lung”, “fashion.” for “fashion. Mortality caused by fibrosis is shown in this figure.”"}}, "note": "Bridge positions count the residues as written; N and C are the ends. Ends that are not written are not given here."}
{"molecule": "cortistatin-29: rat sequence of cortistatin, 29 amino acids (GenBank: EDL81150.1) (QERPPLQQPPHRDKKPCKNFFWKTFSSCK-OH; disulfide 17-28 (inferred); ends not checked; UniProt Q62949 84-112, looked up) [reference compound]", "values": [{"measurement": "decrease of the amount of cortistatin-29", "setting": "[1]; after 15 minutes at room temperature", "value": 82, "unit": "%"}]}
{"molecule": "cortistatin", "values": [{"measurement": "affinity to somatostatin receptors", "setting": "[2]", "value": "nanomolar affinity"}, {"measurement": "blood half-life", "setting": "[3]", "value": "a few minutes"}]}
{"molecule": "C[C@@H](O)[C@@H]1NC(=O)[C@H](CCCCN)NC(=O)[C@@H](Cc2c[nH]c3ccccc23)NC(=O)[C@H](Cc2ccccc2)NC(=O)[C@@H](NC(=O)[C@H](N)Cc2ccccc2)CSSC[C@@H](C(=O)N[C@H](CO)[C@@H](C)O)NC1=O", "note": "[octreotide]", "values": [{"measurement": "affinity to the sstr1 receptor", "setting": "sstr1", "value": "completely loses its affinity"}, {"measurement": "affinity to the sstr4 receptor", "setting": "sstr4", "value": "completely loses its affinity"}, {"measurement": "binding to the sstrt2 receptor", "setting": "sstrt2 receptor", "value": "keeps binding"}]}
{"molecule": "recombinant MMP1", "values": [{"measurement": "amount of Cortistatin-29 (indirectly measuring LAP-CST) recovered from the culture, 12 hours after MMP1 treatment", "setting": "[4]", "value": "diminished from 80 ng to 20 ng, 12 hours later"}, {"measurement": "amount of Cortistatin-29 (indirectly measuring LAP-CST) recovered from the culture, before MMP1 treatment", "setting": "[4]", "value": "diminished from 80 ng to 20 ng, 12 hours later"}]}
{"molecule": "B1", "values": [{"measurement": "survival", "setting": "[5]; mortality of 50% in untreated mice", "value": 100, "unit": "%"}, {"measurement": "liver fibrotic area", "setting": "[5]; similar to cortistatin 500 ng/mouse three times a week", "value": "significantly reduced liver fibrotic area"}, {"measurement": "dermal fibrosis (skin thickness, Mason Trichromic staining)", "setting": "[6]; local, once a week, 20 pg, four weeks, compared with LAP alone, as effective as cortistatin 10 ng 3 times per week", "value": "effective in reducing dermal fibrosis"}, {"measurement": "effectiveness of a single injection relative to recombinant cortistatin", "setting": "[6]; weekly 20 pg versus cortistatin 3 times per week at 500-fold higher concentration", "value": "at least 1,500 times"}, {"measurement": "protection versus bleomycin-induced lung fibrosis and mortality", "setting": "[7]", "value": "protected"}, {"measurement": "amount of Cortistatin-29 (indirectly measuring LAP-CST) recovered from the culture", "setting": "recombinant MMP1", "value": 20, "unit": "ng"}, {"measurement": "lung fibrosis and damage", "setting": "[8]; 18 days, as effective as cortistatin 3 times per week at 500-fold higher dose", "value": "significantly reduced lung fibrosis and damage"}, {"measurement": "survival", "setting": "[8]; bleomycin alone causes 80% of mortality", "value": "dramatically increased survival"}, {"measurement": "time the amount of cortistatin-29 remains stable", "setting": "[1]; cortistatin-29 in LAP-CST", "value": "at least 7 days"}]}
